One may read the Kd as the equilibrium constant for the complex coming apart. A word on the stoichiometry N: it is a count of units in the complex or per binding partner.

Common to all, as to conditions: both partners purified
Test [1] has as its target T1, Recombinant purified α-isoform of mammalian PP1 (residues 1–330), tag cleaved (mammalian, UniProt P62136 1-330).
T1 construct: Protein phosphatase 1 catalytic subunit, α-isoform, 'mammalian', residues 1–330; synthetic gene (GenScript); Printed mass 37.5 kDa; Subcloned into pMAL-c2G under the Ptac promoter; also called PP1α; source: E. coli BL21 AI (RIL), purified (TALON, TEV cleavage, heparin Sepharose); not shown: His6, N-terminal, cleaved
Briefly: SPR; Biacore 3000; PP1 covalently coupled to a CM5 chip; Rif1 CRI, mutants and peptide injected at 20 µl/min in 10 mM Tris-HCl pH 7.5, 250 mM NaCl, 1 mM DTT, 2 mM MnCl2, 0.005% Tween 20; 1:1 binding model.

Test [2] addresses T1, Recombinant purified α-isoform of …. Briefly: SEC; analytical gel filtration on Superdex 75 in 20 mM Tris-HCl pH 7.5, 200 mM NaCl, 2 mM DTT, 1 mM MnCl2; PP1/CRI at molar ratios 1:1, 1:3 and 2:1.
The target is the same in test [3]. Briefly: ITC; CRI (140 µM) titrated into PP1 (18 µM), iTC200, 25 °C; 20 mM Tris-HCl pH 7.5, 200 mM NaCl, 1 mM MnCl2, 5 mM β-mercaptoethanol, 10% glycerol. On the technique in general: Isothermal titration calorimetry measures the heat released or taken up as one component is titrated into another.

T1 sequence (P62136 whole entry, the tested form may be a part, canonical isoform): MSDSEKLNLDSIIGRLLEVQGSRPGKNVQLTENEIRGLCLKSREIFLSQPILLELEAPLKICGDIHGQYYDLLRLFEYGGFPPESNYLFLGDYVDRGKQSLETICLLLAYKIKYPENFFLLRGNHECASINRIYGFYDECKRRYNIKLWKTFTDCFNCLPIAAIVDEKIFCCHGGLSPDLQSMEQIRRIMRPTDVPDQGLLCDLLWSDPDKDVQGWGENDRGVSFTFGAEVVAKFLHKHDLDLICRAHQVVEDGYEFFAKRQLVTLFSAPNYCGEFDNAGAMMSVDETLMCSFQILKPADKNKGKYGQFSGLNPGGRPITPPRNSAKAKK

B1: Rif1 CRI (residues 2093–2190), purified, wild type (domain or fragment, mouse, UniProt Q6PR54 2093-2190, looked up)
chain: TSPEKLELDSFGSVNESPSGMQQARCVWSPLASPSTSILKRGLKRSQEDEISPVNKIRRVSFADPIYQAGLADDIDRRCSVVRSHSSNSSPIIKSVKT
notes: Rif1, mouse, CRI, residues 2093–2190; For NMR the same fragment was 15N or 15N/13C labelled; Printed mass 10.8 kDa; also called CR1; 15N-labeled CRI; source: recombinant, purified (TALON beads, tag cleaved by TEV protease)
For B1, the dissociation constant (Kd) in test [1] is 9.7 ± 1.7 nM. Besides, in test [2], the “stoichiometry N” value stood at 1. In test [3], the Kd is 22.8 ± 4.2 nM and the dH was -23.8 ± 0.129 kcal/mol.

These data come from article PMC5437018, “Mouse Rif1 is a regulatory subunit of protein phosphatase 1 (PP1)” (Scientific Reports, 2017).
